The labels stand for the following.
T1: Human CD19-his protein (human, UniProt P15391 20-291)
T1 construct: bought protein; also called human CD19 protein; recombinant human CD19-His; not shown: His tag
T1 sequence (looked up): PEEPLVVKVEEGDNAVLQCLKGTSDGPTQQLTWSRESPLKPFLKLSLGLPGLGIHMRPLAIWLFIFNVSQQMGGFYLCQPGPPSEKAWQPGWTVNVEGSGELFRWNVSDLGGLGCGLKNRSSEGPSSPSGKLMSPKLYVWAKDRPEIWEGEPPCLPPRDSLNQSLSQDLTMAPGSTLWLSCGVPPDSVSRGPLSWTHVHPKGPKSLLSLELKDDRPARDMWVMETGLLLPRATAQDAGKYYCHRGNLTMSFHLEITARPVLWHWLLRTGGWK

T2: human CD19 exon1-3-his protein (human, UniProt P15391 20-186, limits assumed)
T2 construct: made in HEK293E cells; also called membrane-distal end; not shown: His tag
T2 sequence (looked up): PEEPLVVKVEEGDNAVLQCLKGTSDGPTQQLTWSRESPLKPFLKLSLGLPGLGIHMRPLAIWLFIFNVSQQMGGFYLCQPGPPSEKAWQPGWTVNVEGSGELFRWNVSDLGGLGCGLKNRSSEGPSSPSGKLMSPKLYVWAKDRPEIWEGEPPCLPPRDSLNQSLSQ

T3: murine CD19 protein (murine, UniProt P25918 17-287, limits assumed)
T3 construct: bought protein; also called commercial murine CD19
T3 sequence (looked up): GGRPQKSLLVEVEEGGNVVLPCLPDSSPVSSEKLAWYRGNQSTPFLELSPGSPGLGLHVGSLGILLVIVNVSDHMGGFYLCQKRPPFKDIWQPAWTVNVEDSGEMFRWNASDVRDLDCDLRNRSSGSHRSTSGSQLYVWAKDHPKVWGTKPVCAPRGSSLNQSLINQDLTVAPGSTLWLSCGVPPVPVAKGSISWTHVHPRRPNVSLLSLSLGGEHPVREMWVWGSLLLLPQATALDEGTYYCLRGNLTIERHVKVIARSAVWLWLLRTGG

B1: F5.8.6 (antibody, human IgG1, V domains shown)
VH: QVQLHQPGAELVMPGASVTLSCKASGYTFTSYWMHWVKQRPGQGLEWIGEIDPSDSYTTYDQKFKGKATLTVDKFSSTAYMQFSSLTSEDSAVYYCARLTGNHLDYWGQGTTLTVSS
VL: DIVMTQSHKFMSSSVGDRVSITCKASQDVSPAVAWYQQKPGQSPKLLIYSTSYRNTGVPDRFTGSGSGTDFTFTISSVQAEDLAVYYCQQHYSIPLTFGAGTKLELK
notes: human-murine chimeric antibody, human IgG1
B2: F5.7.1 (antibody, human IgG1, V domains shown)
VH: QVTLKESGPGILQPSQTLSLTCSFSGFSLTTFGMGVGWIRQPSGKGLEWLTHIWWDDDKYYNPALKSRLTISKDTSKNQVFLRIANVDTADTATYYCARVITTGVPYFDYWGQGTTLTVSS
VL: ENVLTQSPAIMSASPGEKVTMTCRASSSVSSSYLYWYQQKSGASPKLWISSTSNLASGVPARFSGSGSGTSYSLTINSVEAEDAATYYCQQYSGYPWTFGGGTKLEIK
notes: as for B1
B3: F4.15.9 (antibody, human IgG1, V domains shown)
VH: QVQLQQSGPELVKPGASVKISCKASGYAFSSSWMNWLKQRPGQGLEWIGRIYPGDGDTNYNGKFKGKATLTADESSSTAYMQLSSLTSVDSAVYFCARGITTIITIAWFASWGQGTLVTVSA
VL: QIVLSQSPTILSASPGEKVTMTCRASSSVSYMHWYQQKPGSSPKPWIYATSNLASGVPPRFSGSGSGTSYSLTISRVGAEDAATYYCQQWSSDPWTFGGGTKLEIK
notes: as for B1
B4: F5.10.6 (antibody, human IgG1, V domains shown)
VH: DVQLQESGPGLVKPSQSLSLTCSVTDYSITSGYYWTWIRQFPGNKLEWMGYISYDGSTNYNPSLKNRFSITRDTSKNQFFLKLNSVIIEDTATYYCARDRMSTTWYFDVWGTGTTVTVSS
VL: DIVLTQSPASLAVSLGQRATISCRASESVDNYGISFMHWYQQKPGQPPKLLIYRASKTESGIPARFSGSGSRTDFTLTINPVETDDVATYYCQQSNKYPRTFGGGTKVEIK
notes: as for B1

The values that follow come from patent US20250042994A1 (HAINAN SIMCERE ZAIMING PHARMACEUTICAL, published 2025).

Broadly, the EC50 (read off the curve) is the concentration at which the effect is half-maximal.

The first test concerns the target T1, Human CD19-his protein. Description: ELISA, antibody at 0.001 nM. On the technique in general: In an ELISA, binding on a coated surface is turned into a signal by an enzyme label.
For the molecule B1, the OD450 was 0.06.
Take B2: the OD450 came to 0.08.
B3 registered an OD450 of 0.08.
Molecule B4 had an OD450 of 0.07.

In the next test the target is T1, Human CD19-his protein. Description: ELISA, antibody at 0.01 nM.
The molecule B1 came in with an OD450 of 0.08.
For B2, the OD450 was determined as 0.25.
On the same count and under the same terms, with B3 the figure was 0.24; with B4, 0.15.

Another test concerns the target T1, Human CD19-his protein. The test can be described thus: ELISA, antibody at 1.00 nM.
For the molecule B1, the OD450 amounted to 0.69.
On the same count and under the same terms, with B2 the figure was 1.62.
The same measure, in the same setting: the same measure for B3: 1.12; for B4: 1.48.

For a further test, the target named is T1, Human CD19-his protein. Description: ELISA, antibody at 10 nM.
Consider B1, for which the OD450 stood at 0.93.
Same read-out and setting: the same measure for B2: 1.78; for B3: 1.27; for B4: 1.76.

The target in a further test is T1, Human CD19-his protein. Description: ELISA on coated human CD19-His. The method, then:
Human CD19-his protein (purchased from ACROBiosystems, catalog number: CD9-H52H2) was diluted with PBS to a final concentration of 4 μg/mL, and then added to a 96-well ELISA plate at 100 μl/well. The plate was sealed with a plastic film and incubated overnight at 4° C., the plate was washed 2 times with PBS the next day, and then a blocking solution [PBS+2% (w/w) BSA] was added for blocking at room temperature for 2 h. The blocking solution was poured off, and 100 nM gradiently diluted CD19 chimeric antibody or control antibody was added at 50 μl/well. After incubation at 37° C. for 2 h, the plate was washed 3 times with PBS. […] TMB substrate was added at 50 μl/well, and incubated at room temperature for 10 min, and then a stop solution (1.0 N HCl) was added at 50 μl/well. The OD450 nm values were read by an ELISA microplate reader (Multimode Plate Reader, EnSight, purchased from Perkin Elmer).
With B1, the “EC50 (read off the curve)” value is about 0.4 nM.
On the same count and under the same terms, the same measure for B2: about 0.07 nM; for B3: about 0.03 nM.
Same read-out and setting: the same measure for B4: about 0.2 nM.

The target of the next test is T1, Human CD19-his protein. Description: ELISA, antibody at 0.0001 nM.
Molecule B1 came in with an OD450 of 0.05.
On the same count and under the same terms, the same measure for B2: 0.06; for B3: 0.06.
The same measure, in the same setting: the same measure for B4: 0.05.

A further test addresses T1, Human CD19-his protein. The test can be described thus: ELISA, antibody at 100 nM.
The molecule B1 came in with an OD450 of 0.96.
Still for that read-out and setting: with B2 the figure was 1.91.
The same measure, in the same setting: with B3 the figure was 1.35.
On the same count and under the same terms, the same measure for B4: 1.52.

The target of the next test is T1, Human CD19-his protein. The test can be described thus: ELISA, antibody at 0.10 nM.
Molecule B1 showed an OD450 of 0.22.
For B2, the OD450 worked out at 1.09.
The molecule B3 yielded an OD450 of 1.06.
Still for that read-out and setting: with B4 the figure was 0.68.

A further test has as its target T2, human CD19 exon1-3-his protein. Description: ELISA, coated at 2 ug/mL.
For the molecule B1, the binding result was “no binding”.
The same measure, in the same setting: with B2 the entry was “no binding”.
Still for that read-out and setting: the same measure for B3: “no binding”; for B4: “no binding”.

A further test has as its target T3, murine CD19 protein. Description: ELISA, coated murine CD19. The method in brief: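 Plates coated overnight at 4° C with recombinant murine or monkey CD19 and blocked with 2% BSA. Chimeric antibodies, serially diluted from 100 nM, bound for 2 h at 37° C. TMB development for 10 min with OD450 read-out.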
With B1, the binding result was “no binding”.
On the same count and under the same terms, the same measure for B2: “no binding”.
On the same count and under the same terms, the same measure for B3: “no binding”; for B4: “no binding”.
